# Measurements published in patent US20230406885A1, “CYCLIC PEPTIDES FOR TRAPPING INTERLEUKIN-1 BETA” (MERCK SHARP & DOHME LLC, priority 2022, published 2023).
# *1 amine or outer side, *2 acyl side, *3 side chain or, on linkers, in order; H or OH if unused. Primed or numbered codes have the meaning given here. [ ]: non-standard residue; d: D form. TyrEtNAc = L-tyrosine O-ethyl acetamide, (S)-3-(4-(2-acetamidoethoxy)phenyl)-2-aminopropanoic acid, CC(=O)NCCOc1ccc(C[C@H](N[*:1])C(=O)[*:2])cc1; AEF′ = (S)-2-amino-3-(6-(2-aminoethoxy)pyridin-3-yl)propanoic acid, O=C([C@H](Cc1ccc(OCCN[*:3])nc1)N[*:1])[*:2]; AbuMph = (S)-2-amino-4-morpholinobutanoic acid, O=C([C@H](CCN1CCOCC1)N[*:1])[*:2]; Ala(piperidin-4-yl) = O=C([C@H](CC1CCN([*:3])CC1)N[*:1])[*:2]; Pro(trans-4-NH2) = O=C([C@@H]1C[C@@H](N[*:3])CN1[*:1])[*:2]; Trp(βS-Me,4-F) = C[C@@H](c1c[nH]c2cccc(F)c12)[C@H](N)C(=O)O; Bip(4'-COOH) = N[C@@H](Cc1ccc(-c2ccc(C(=O)O)cc2)cc1)C(=O)O; Phe(4-COOH) = N[C@@H](Cc1ccc(C(=O)O)cc1)C(=O)O; hTyr = N[C@@H](CCc1ccc(O)cc1)C(=O)O; hPhe = N[C@@H](CCc1ccccc1)C(=O)O; dOrn = NCCC[C@@H](N)C(=O)O; dDab = NCC[C@@H](N)C(=O)O; dNMeA = CN[C@H](C)C(=O)O; Dab = NCC[C@H](N)C(=O)O
# Target: Recombinant human IL-1β (BioLegend 579404) (human, UniProt P01584 117-269)
# Assay: cell-based or functional assay
row,Binder,MRC5 IC50 [nM]
1,"cyclo([TyrEtNAc]W[Phe(4-COOH)]G[Pro(trans-4-NH2)][Trp(βS-Me,4-F)]D[dNMeA]G[Bip(4'-COOH)]KL[dA][hTyr]) (SMILES CC(=O)NCCOc1ccc(C[C@@H]2NC(=O)[C@H](CCc3ccc(O)cc3)NC(=O)[C@@H](C)NC(=O)[C@H](CC(C)C)NC(=O)[C@H](CCCCN)NC(=O)[C@H](Cc3ccc(-c4ccc(C(=O)O)cc4)cc3)NC(=O)CNC(=O)[C@@H](C)N(C)C(=O)[C@H](CC(=O)O)NC(=O)[C@H]([C@@H](C)c3c[nH]c4cccc(F)c34)NC(=O)[C@@H]3C[C@@H](N)CN3C(=O)CNC(=O)[C@H](Cc3ccc(C(=O)O)cc3)NC(=O)[C@H](Cc3c[nH]c4ccccc34)NC2=O)cc1) [SEQ ID NO: 159 (Example No. 159)]",0.118
2,"cyclo([TyrEtNAc]W[Phe(4-COOH)]G[Pro(trans-4-NH2)][Trp(βS-Me,4-F)]D[dNMeA]G[Bip(4'-COOH)]KL[dDab][hTyr]) (SMILES CC(=O)NCCOc1ccc(C[C@@H]2NC(=O)[C@H](CCc3ccc(O)cc3)NC(=O)[C@@H](CCN)NC(=O)[C@H](CC(C)C)NC(=O)[C@H](CCCCN)NC(=O)[C@H](Cc3ccc(-c4ccc(C(=O)O)cc4)cc3)NC(=O)CNC(=O)[C@@H](C)N(C)C(=O)[C@H](CC(=O)O)NC(=O)[C@H]([C@@H](C)c3c[nH]c4cccc(F)c34)NC(=O)[C@@H]3C[C@@H](N)CN3C(=O)CNC(=O)[C@H](Cc3ccc(C(=O)O)cc3)NC(=O)[C@H](Cc3c[nH]c4ccccc34)NC2=O)cc1) [SEQ ID NO: 160 (Example No. 160)]",0.522
3,"cyclo([TyrEtNAc]W[Phe(4-COOH)]G[Pro(trans-4-NH2)][Trp(βS-Me,4-F)]D[dNMeA]G[Bip(4'-COOH)]KL[dS][hTyr]) (SMILES CC(=O)NCCOc1ccc(C[C@@H]2NC(=O)[C@H](CCc3ccc(O)cc3)NC(=O)[C@@H](CO)NC(=O)[C@H](CC(C)C)NC(=O)[C@H](CCCCN)NC(=O)[C@H](Cc3ccc(-c4ccc(C(=O)O)cc4)cc3)NC(=O)CNC(=O)[C@@H](C)N(C)C(=O)[C@H](CC(=O)O)NC(=O)[C@H]([C@@H](C)c3c[nH]c4cccc(F)c34)NC(=O)[C@@H]3C[C@@H](N)CN3C(=O)CNC(=O)[C@H](Cc3ccc(C(=O)O)cc3)NC(=O)[C@H](Cc3c[nH]c4ccccc34)NC2=O)cc1) [SEQ ID NO: 161 (Example No. 161)]",0.483
4,"cyclo([TyrEtNAc]W[Phe(4-COOH)]G[Pro(trans-4-NH2)][Trp(βS-Me,4-F)]D[dNMeA]G[Bip(4'-COOH)]W[AbuMph][dA]G) (SMILES CC(=O)NCCOc1ccc(C[C@@H]2NC(=O)CNC(=O)[C@@H](C)NC(=O)[C@H](CCN3CCOCC3)NC(=O)[C@H](Cc3c[nH]c4ccccc34)NC(=O)[C@H](Cc3ccc(-c4ccc(C(=O)O)cc4)cc3)NC(=O)CNC(=O)[C@@H](C)N(C)C(=O)[C@H](CC(=O)O)NC(=O)[C@H]([C@@H](C)c3c[nH]c4cccc(F)c34)NC(=O)[C@@H]3C[C@@H](N)CN3C(=O)CNC(=O)[C@H](Cc3ccc(C(=O)O)cc3)NC(=O)[C@H](Cc3c[nH]c4ccccc34)NC2=O)cc1) [SEQ ID NO: 162 (Example No. 162)]",0.749
5,"cyclo([TyrEtNAc]W[Phe(4-COOH)]G[Pro(trans-4-NH2)][Trp(βS-Me,4-F)]D[dNMeA]G[Bip(4'-COOH)]W[Dab][dA][hPhe]) (SMILES CC(=O)NCCOc1ccc(C[C@@H]2NC(=O)[C@H](CCc3ccccc3)NC(=O)[C@@H](C)NC(=O)[C@H](CCN)NC(=O)[C@H](Cc3c[nH]c4ccccc34)NC(=O)[C@H](Cc3ccc(-c4ccc(C(=O)O)cc4)cc3)NC(=O)CNC(=O)[C@@H](C)N(C)C(=O)[C@H](CC(=O)O)NC(=O)[C@H]([C@@H](C)c3c[nH]c4cccc(F)c34)NC(=O)[C@@H]3C[C@@H](N)CN3C(=O)CNC(=O)[C@H](Cc3ccc(C(=O)O)cc3)NC(=O)[C@H](Cc3c[nH]c4ccccc34)NC2=O)cc1) [SEQ ID NO: 163 (Example No. 163)]",0.156
6,"cyclo([TyrEtNAc]W[Phe(4-COOH)]G[Pro(trans-4-NH2)][Trp(βS-Me,4-F)]D[dNMeA]G[Bip(4'-COOH)]WL[dA][AEF′]) [SEQ ID NO: 164 (Example No. 164)]",0.459
7,"cyclo([TyrEtNAc]W[Phe(4-COOH)]G[Pro(trans-4-NH2)][Trp(βS-Me,4-F)]D[dNMeA]G[Bip(4'-COOH)]WL[dA][Ala(piperidin-4-yl)]) (SMILES CC(=O)NCCOc1ccc(C[C@@H]2NC(=O)[C@H](CC3CCNCC3)NC(=O)[C@@H](C)NC(=O)[C@H](CC(C)C)NC(=O)[C@H](Cc3c[nH]c4ccccc34)NC(=O)[C@H](Cc3ccc(-c4ccc(C(=O)O)cc4)cc3)NC(=O)CNC(=O)[C@@H](C)N(C)C(=O)[C@H](CC(=O)O)NC(=O)[C@H]([C@@H](C)c3c[nH]c4cccc(F)c34)NC(=O)[C@@H]3C[C@@H](N)CN3C(=O)CNC(=O)[C@H](Cc3ccc(C(=O)O)cc3)NC(=O)[C@H](Cc3c[nH]c4ccccc34)NC2=O)cc1) [SEQ ID NO: 165 (Example No. 165)]",0.781
8,"cyclo([TyrEtNAc]W[Phe(4-COOH)]G[Pro(trans-4-NH2)][Trp(βS-Me,4-F)]D[dNMeA]G[Bip(4'-COOH)]WL[dA][hPhe]) (SMILES CC(=O)NCCOc1ccc(C[C@@H]2NC(=O)[C@H](CCc3ccccc3)NC(=O)[C@@H](C)NC(=O)[C@H](CC(C)C)NC(=O)[C@H](Cc3c[nH]c4ccccc34)NC(=O)[C@H](Cc3ccc(-c4ccc(C(=O)O)cc4)cc3)NC(=O)CNC(=O)[C@@H](C)N(C)C(=O)[C@H](CC(=O)O)NC(=O)[C@H]([C@@H](C)c3c[nH]c4cccc(F)c34)NC(=O)[C@@H]3C[C@@H](N)CN3C(=O)CNC(=O)[C@H](Cc3ccc(C(=O)O)cc3)NC(=O)[C@H](Cc3c[nH]c4ccccc34)NC2=O)cc1) [SEQ ID NO: 166 (Example No. 166)]",0.149
9,"cyclo([TyrEtNAc]W[Phe(4-COOH)]G[Pro(trans-4-NH2)][Trp(βS-Me,4-F)]D[dNMeA]G[Bip(4'-COOH)]WL[dA][hTyr]) (SMILES CC(=O)NCCOc1ccc(C[C@@H]2NC(=O)[C@H](CCc3ccc(O)cc3)NC(=O)[C@@H](C)NC(=O)[C@H](CC(C)C)NC(=O)[C@H](Cc3c[nH]c4ccccc34)NC(=O)[C@H](Cc3ccc(-c4ccc(C(=O)O)cc4)cc3)NC(=O)CNC(=O)[C@@H](C)N(C)C(=O)[C@H](CC(=O)O)NC(=O)[C@H]([C@@H](C)c3c[nH]c4cccc(F)c34)NC(=O)[C@@H]3C[C@@H](N)CN3C(=O)CNC(=O)[C@H](Cc3ccc(C(=O)O)cc3)NC(=O)[C@H](Cc3c[nH]c4ccccc34)NC2=O)cc1) [SEQ ID NO: 167 (Example No. 167)]",0.136
10,"cyclo([TyrEtNAc]W[Phe(4-COOH)]G[Pro(trans-4-NH2)][Trp(βS-Me,4-F)]D[dNMeA]G[Bip(4'-COOH)]WL[dDab][hTyr]) (SMILES CC(=O)NCCOc1ccc(C[C@@H]2NC(=O)[C@H](CCc3ccc(O)cc3)NC(=O)[C@@H](CCN)NC(=O)[C@H](CC(C)C)NC(=O)[C@H](Cc3c[nH]c4ccccc34)NC(=O)[C@H](Cc3ccc(-c4ccc(C(=O)O)cc4)cc3)NC(=O)CNC(=O)[C@@H](C)N(C)C(=O)[C@H](CC(=O)O)NC(=O)[C@H]([C@@H](C)c3c[nH]c4cccc(F)c34)NC(=O)[C@@H]3C[C@@H](N)CN3C(=O)CNC(=O)[C@H](Cc3ccc(C(=O)O)cc3)NC(=O)[C@H](Cc3c[nH]c4ccccc34)NC2=O)cc1) [SEQ ID NO: 168 (Example No. 168)]",0.0847
11,"cyclo([TyrEtNAc]W[Phe(4-COOH)]G[Pro(trans-4-NH2)][Trp(βS-Me,4-F)]D[dNMeA]G[Bip(4'-COOH)]WL[dK][hTyr]) (SMILES CC(=O)NCCOc1ccc(C[C@@H]2NC(=O)[C@H](CCc3ccc(O)cc3)NC(=O)[C@@H](CCCCN)NC(=O)[C@H](CC(C)C)NC(=O)[C@H](Cc3c[nH]c4ccccc34)NC(=O)[C@H](Cc3ccc(-c4ccc(C(=O)O)cc4)cc3)NC(=O)CNC(=O)[C@@H](C)N(C)C(=O)[C@H](CC(=O)O)NC(=O)[C@H]([C@@H](C)c3c[nH]c4cccc(F)c34)NC(=O)[C@@H]3C[C@@H](N)CN3C(=O)CNC(=O)[C@H](Cc3ccc(C(=O)O)cc3)NC(=O)[C@H](Cc3c[nH]c4ccccc34)NC2=O)cc1) [SEQ ID NO: 169 (Example No. 169)]",0.112
12,"cyclo([TyrEtNAc]W[Phe(4-COOH)]G[Pro(trans-4-NH2)][Trp(βS-Me,4-F)]D[dNMeA]G[Bip(4'-COOH)]WL[dOrn][hTyr]) (SMILES CC(=O)NCCOc1ccc(C[C@@H]2NC(=O)[C@H](CCc3ccc(O)cc3)NC(=O)[C@@H](CCCN)NC(=O)[C@H](CC(C)C)NC(=O)[C@H](Cc3c[nH]c4ccccc34)NC(=O)[C@H](Cc3ccc(-c4ccc(C(=O)O)cc4)cc3)NC(=O)CNC(=O)[C@@H](C)N(C)C(=O)[C@H](CC(=O)O)NC(=O)[C@H]([C@@H](C)c3c[nH]c4cccc(F)c34)NC(=O)[C@@H]3C[C@@H](N)CN3C(=O)CNC(=O)[C@H](Cc3ccc(C(=O)O)cc3)NC(=O)[C@H](Cc3c[nH]c4ccccc34)NC2=O)cc1) [SEQ ID NO: 170 (Example No. 170)]",0.0966
13,"cyclo([TyrEtNAc]W[Phe(4-COOH)]G[Pro(trans-4-NH2)][Trp(βS-Me,4-F)]D[dNMeA]G[Bip(4'-COOH)]WL[dS][hTyr]) (SMILES CC(=O)NCCOc1ccc(C[C@@H]2NC(=O)[C@H](CCc3ccc(O)cc3)NC(=O)[C@@H](CO)NC(=O)[C@H](CC(C)C)NC(=O)[C@H](Cc3c[nH]c4ccccc34)NC(=O)[C@H](Cc3ccc(-c4ccc(C(=O)O)cc4)cc3)NC(=O)CNC(=O)[C@@H](C)N(C)C(=O)[C@H](CC(=O)O)NC(=O)[C@H]([C@@H](C)c3c[nH]c4cccc(F)c34)NC(=O)[C@@H]3C[C@@H](N)CN3C(=O)CNC(=O)[C@H](Cc3ccc(C(=O)O)cc3)NC(=O)[C@H](Cc3c[nH]c4ccccc34)NC2=O)cc1) [SEQ ID NO: 171 (Example No. 171)]",0.145
